Measurements as given in patent US20200157174A1 (DRAGONFLY THERAPEUTICS, published 2020).

T1: recombinant mouse NKG2D-Fc (mouse; human, UniProt O54709 90-232)
T1 construct: extracellular domain; also called mouse NKG2D-Fc fusion protein; Mouse NKG2D-Fc-biotin; not shown: human IgG1 Fc domain
T1 sequence (looked up): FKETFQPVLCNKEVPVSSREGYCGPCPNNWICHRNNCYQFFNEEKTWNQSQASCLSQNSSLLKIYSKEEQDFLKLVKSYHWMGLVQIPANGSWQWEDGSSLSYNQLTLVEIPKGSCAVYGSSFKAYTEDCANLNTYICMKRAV

T2: recombinant human NKG2D-Fc (human, UniProt P26718 73-216)
T2 construct: extracellular domain; also called human NKG2D-Fc fusion protein; NKG2D-Fc-biotin; not shown: human IgG1 Fc domain
T2 sequence (looked up): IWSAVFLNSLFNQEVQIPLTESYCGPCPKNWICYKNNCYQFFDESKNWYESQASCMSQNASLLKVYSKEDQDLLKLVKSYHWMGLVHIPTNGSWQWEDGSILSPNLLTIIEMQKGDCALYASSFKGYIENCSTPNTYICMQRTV

T3: recombinant cynomolgus NKG2D-Fc (cynomolgus; human, UniProt P61252 73-216)
T3 construct: extracellular domain; also called cynomolgus NKG2D-Fc fusion protein; not shown: human IgG1 Fc domain
T3 sequence (looked up): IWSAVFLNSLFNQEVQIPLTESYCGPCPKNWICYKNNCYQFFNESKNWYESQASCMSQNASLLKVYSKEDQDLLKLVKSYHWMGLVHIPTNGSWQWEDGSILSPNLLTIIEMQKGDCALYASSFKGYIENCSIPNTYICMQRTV


Legend:
Experiment in all cases: ELISA on coated NKG2D-Fc;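 also: titrated NKG2D-binding domains on plate-bound human, mouse or cynomolgus NKG2D ectodomain–human IgG1 Fc fusions, detected with HRP anti-human kappa secondary and TMB, absorbance at 450 nm corrected at 540 nm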
[1] = biological target: T1, recombinant mouse NKG2D-Fc
Description: (§1) After purification, NKG2D-Fc fusion proteins were adsorbed to wells of microplates. After blocking the wells with bovine serum albumin to prevent non-specific binding, NKG2D-binding domains were titrated and added to the wells pre-adsorbed with NKG2D-Fc fusion proteins. Primary antibody binding was detected using a secondary antibody which was conjugated to horseradish peroxidase and specifically recognizes a human kappa light chain to avoid Fc cross-reactivity. 3,3′,5,5′-Tetramethylbenzidine (TMB), a substrate for horseradish peroxidase, was added to the wells to visualize the binding signal, whose absorbance was measured at 450 nm and corrected at 540 nM.

[2] = biological target: T2, recombinant human NKG2D-Fc
Description: as §1

[3] = biological target: T3, recombinant cynomolgus NKG2D-Fc
Description: as §1

| Binder | binding result [1] | binding result [2] | binding result [3] |
| --- | --- | --- | --- |
| ADI-27705 (antibody, V domains shown) VH: QVQLQQWGAGLLKPSETLSLTCAVYGGSFSGYYWSWIRQPPGKGLEWIGEIDHSGSTNYNPSLKSRVTISVDTSKNQFSLKLSSVTAADTAVYYCARARGPWSFDPWGQGTLVTVSS VL: not shown | binds | binds | binds |
| ADI-29403 (antibody, V domains shown) VH: QVQLQQWGAGLLKPSETLSLTCAVYGGSFSGYYWSWIRQPPGKGLEWIGEIDHSGSTNYNPSLKSRVTISVDTSKNQFSLKLSSVTAADTAVYYCARARGPWSFDPWGQGTLVTVSS VL: not shown | binds | binds | binds |
| ADI-29404 (antibody, V domains shown, also called F04) VH: QVQLQQWGAGLLKPSETLSLTCAVYGGSFSGYYWSWIRQPPGKGLEWIGEIDHSGSTNYNPSLKSRVTISVDTSKNQFSLKLSSVTAADTAVYYCARARGPWSFDPWGQGTLVTVSS VL: DIQMTQSPSTLSASVGDRVTITCRASQSISSWLAWYQQKPGKAPKLLIYKASSLESGVPSRFSGSGSGTEFTLTISSLQPDDFATYYCEQYDSYPTFGGGTKVEIK | binds | binds | binds |
| ADI-29405 (antibody, V domains shown) VH: QVQLQQWGAGLLKPSETLSLTCAVYGGSFSGYYWSWIRQPPGKGLEWIGEIDHSGSTNYNPSLKSRVTISVDTSKNQFSLKLSSVTAADTAVYYCARARGPWSFDPWGQGTLVTVSS VL: DIQMTQSPSTLSASVGDRVTITCRASQSISSWLAWYQQKPGKAPKLLIYKASSLESGVPSRFSGSGSGTEFTLTISSLQPDDFATYYCQQYGSFPTFGGGTKVEIK | binds | binds | binds |
| ADI-29421 (antibody, V domains shown) VH: QVQLQQWGAGLLKPSETLSLTCAVYGGSFSGYYWSWIRQPPGKGLEWIGEIDHSGSTNYNPSLKSRVTISVDTSKNQFSLKLSSVTAADTAVYYCARARGPWSFDPWGQGTLVTVSS VL: not shown | binds | binds | binds |
| ADI-29407 (antibody, V domains shown) VH: QVQLQQWGAGLLKPSETLSLTCAVYGGSFSGYYWSWIRQPPGKGLEWIGEIDHSGSTNYNPSLKSRVTISVDTSKNQFSLKLSSVTAADTAVYYCARARGPWSFDPWGQGTLVTVSS VL: DIQMTQSPSTLSASVGDRVTITCRASQSISSWLAWYQQKPGKAPKLLIYKASSLESGVPSRFSGSGSGTEFTLTISSLQPDDFATYYCQQYQSFPTFGGGTKVEIK | binds | binds | binds |
| ADI-29419 (antibody, V domains shown) VH: QVQLQQWGAGLLKPSETLSLTCAVYGGSFSGYYWSWIRQPPGKGLEWIGEIDHSGSTNYNPSLKSRVTISVDTSKNQFSLKLSSVTAADTAVYYCARARGPWSFDPWGQGTLVTVSS VL: not shown | binds | binds | binds |
| ADI-29399 (antibody, V domains shown) VH: QVQLQQWGAGLLKPSETLSLTCAVYGGSFSGYYWSWIRQPPGKGLEWIGEIDHSGSTNYNPSLKSRVTISVDTSKNQFSLKLSSVTAADTAVYYCARARGPWSFDPWGQGTLVTVSS VL: not shown | binds | binds | binds |
| ADI-27743 (antibody, V domains shown) VH: QVQLQQWGAGLLKPSETLSLTCAVYGGSFSGYYWSWIRQPPGKGLEWIGEIDHSGSTNYNPSLKSRVTISVDTSKNQFSLKLSSVTAADTAVYYCARARGPWSFDPWGQGTLVTVSS VL: not shown | binds | binds | binds |
| ADI-27741 (antibody, V domains shown) VH: QVQLQQWGAGLLKPSETLSLTCAVYGGSFSGYYWSWIRQPPGKGLEWIGEIDHSGSTNYNPSLKSRVTISVDTSKNQFSLKLSSVTAADTAVYYCARARGPWSFDPWGQGTLVTVSS VL: DIQMTQSPSTLSASVGDRVTITCRASQSIGSWLAWYQQKPGKAPKLLIYKASSLESGVPSRFSGSGSGTEFTLTISSLQPDDFATYYCQQSNSYYTFGGGTKVEIK | binds | binds | binds |
| ADI-27740 (antibody, V domains shown, also called A40) VH: QVQLQQWGAGLLKPSETLSLTCAVYGGSFSGYYWSWIRQPPGKGLEWIGEIDHSGSTNYNPSLKSRVTISVDTSKNQFSLKLSSVTAADTAVYYCARARGPWSFDPWGQGTLVTVSS VL: DIQMTQSPSTLSASVGDRVTITCRASQSIGSWLAWYQQKPGKAPKLLIYKASSLESGVPSRFSGSGSGTEFTLTISSLQPDDFATYYCQQYHSFYTFGGGTKVEIK | binds | binds | binds |

Continued, values first:

| binding result [1] | binding result [2] | binding result [3] | Binder |
| --- | --- | --- | --- |
| binds | binds | binds | ADI-29401 (antibody, V domains shown) VH: QVQLQQWGAGLLKPSETLSLTCAVYGGSFSGYYWSWIRQPPGKGLEWIGEIDHSGSTNYNPSLKSRVTISVDTSKNQFSLKLSSVTAADTAVYYCARARGPWSFDPWGQGTLVTVSS VL: DIQMTQSPSTLSASVGDRVTITCRASQSIGSWLAWYQQKPGKAPKLLIYKASSLESGVPSRFSGSGSGTEFTLTISSLQPDDFATYYCQQYDIYPTFGGGTKVEIK |
| binds | binds | binds | ADI-29429 (antibody, V domains shown) VH: QVQLQQWGAGLLKPSETLSLTCAVYGGSFSGYYWSWIRQPPGKGLEWIGEIDHSGSTNYNPSLKSRVTISVDTSKNQFSLKLSSVTAADTAVYYCARARGPWSFDPWGQGTLVTVSS VL: DIQMTQSPSTLSASVGDRVTITCRASQSIGSWLAWYQQKPGKAPKLLIYKASSLESGVPSRFSGSGSGTEFTLTISSLQPDDFATYYCQQYELYSYTFGGGTKVEIK |
| binds | binds | binds | ADI-29425 (antibody, V domains shown) VH: QVQLQQWGAGLLKPSETLSLTCAVYGGSFSGYYWSWIRQPPGKGLEWIGEIDHSGSTNYNPSLKSRVTISVDTSKNQFSLKLSSVTAADTAVYYCARARGPWSFDPWGQGTLVTVSS VL: not shown |
| binds | binds | binds | ADI-29426 (antibody, V domains shown) VH: QVQLQQWGAGLLKPSETLSLTCAVYGGSFSGYYWSWIRQPPGKGLEWIGEIDHSGSTNYNPSLKSRVTISVDTSKNQFSLKLSSVTAADTAVYYCARARGPWSFDPWGQGTLVTVSS VL: DIQMTQSPSTLSASVGDRVTITCRASQSIGSWLAWYQQKPGKAPKLLIYKASSLESGVPSRFSGSGSGTEFTLTISSLQPDDFATYYCQQYHSFPTFGGGTKVEIK |
| binds | binds | binds | ADI-28226 (antibody, V domains shown, also called C26) VH: QVQLQQWGAGLLKPSETLSLTCAVYGGSFSGYYWSWIRQPPGKGLEWIGEIDHSGSTNYNPSLKSRVTISVDTSKNQFSLKLSSVTAADTAVYYCARARGPWSFDPWGQGTLVTVSS VL: DIQMTQSPSTLSASVGDRVTITCRASQSISSWLAWYQQKPGKAPKLLIYKASSLESGVPSRFSGSGSGTEFTLTISSLQPDDFATYYCQQYGSFPITFGGGTKVEIK |
| binds | binds | binds | ADI-29424 (antibody, V domains shown) VH: QVQLQQWGAGLLKPSETLSLTCAVYGGSFSGYYWSWIRQPPGKGLEWIGEIDHSGSTNYNPSLKSRVTISVDTSKNQFSLKLSSVTAADTAVYYCARARGPWSFDPWGQGTLVTVSS VL: DIQMTQSPSTLSASVGDRVTITCRASQSISSWLAWYQQKPGKAPKLLIYKASSLESGVPSRFSGSGSGTEFTLTISSLQPDDFATYYCQQYDSFITFGGGTKVEIK |
| binds | binds | binds | ADI-29447 (antibody, V domains shown, also called F47) VH: QVQLQQWGAGLLKPSETLSLTCAVYGGSFSGYYWSWIRQPPGKGLEWIGEIDHSGSTNYNPSLKSRVTISVDTSKNQFSLKLSSVTAADTAVYYCARARGPWSFDPWGQGTLVTVSS VL: DIQMTQSPSTLSASVGDRVTITCRASQSISSWLAWYQQKPGKAPKLLIYKASSLESGVPSRFSGSGSGTEFTLTISSLQPDDFATYYCQQYDTFITFGGGTKVEIK |
| binds | binds | binds | ADI-27727 (antibody, V domains shown) VH: QVQLVQSGAEVKKPGSSVKVSCKASGGTFSSYAISWVRQAPGQGLEWMGGIIPIFGTANYAQKFQGRVTITADESTSTAYMELSSLRSEDTAVYYCARGDSSIRHAYYYYGMDVWGQGTTVTVSS VL: not shown |
